# Results from the nanobody polyreactivity screen of Harvey et al. (2022).
# Test: yeast display, Sf9 membrane polyspecificity reagent, FACS + sequencing; frameworks hold sequencing errors
# How it was run: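 Genes from sorted yeast were amplified by colony PCR, read by MiSeq 2 × 250 sequencing and filtered on CDR length. These cells carried a synthetic nanobody library in Saccharomyces cerevisiae BJ5465 and were sorted by FACS into low and high (top ~1%) gates on anti-HA and streptavidin fluorescence. Polyreactivity is labelled according to the gate of origin.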
row,Sequence,polyreactivity (PSR sort gate)
1,QVQLVESGGGLVQAGGSLRLSCAASGSTFRRYAMGWYRQAPGKERELVASISWSGGSTSYADSVKGRFTISRDTAKNTVYLQMNSLKPEDTAVYYCAAVRYYWGEYYARYAYEYWGQGTQVTVSS,high polyreactivity
2,QVQLVESGGGLVQAGGSLRLSCAASGSTFRRYAMGWYRQAPGNERELVAAITGSGGRTYYADSVKGRFTISRDNAKNTVYLQMNSLKPEDTAVYYCAARGTHSRRRYYYWGQGTQVTVSS,high polyreactivity
3,QVQLVESGGGLVQAGGSLRLSCAASGSTFRRYTMGWYRQAPGKERELVAAISSGGSTYYADSVKGRFTISLDNAKNTVYLQMNSLKPEDTAVYYCAAKNYPLTRYWRYDYSEYYYWGQGTQVTVSS,high polyreactivity
4,QVQLVESGGGLVQAGGSLRLSCAASGSTFRSNAMGWYRQAPGKEGELVAAISSRVGTTNYADSVKGRFTISRDNAKNTVYLQMNSLKPEDTAVYYCAAQGWRYYRTVVPMDYWGQGTQVTVSS,low polyreactivity
5,QVQLVESGGGLVQAGGSLRLSCAASGSTFRSNAMGWYRQAPGKERELVASITSRGGSTYYADSVKGRFTISRDNAKNTVYLQMNSLKPEDTAVYYCATARSYLTYSYHYDYWGQGTQVTVSS,low polyreactivity
6,QVQLVESGGGLVQAGGSLRLSCAASGSTFRSNAMGWYRQAPGKESELVAAITRRGSTYYADSVKGRFTISRDNAKNTVYLQMNSVKPEDTAVYYCAARVPGYASGASGYSSYRYEYWGQGTQVTVSS,high polyreactivity
7,QVQLVESGGGLVQAGGSLRLSCAASGSTFRSYAMGGYIQAPGKERELVAAISGRGGSTYYADSVKGRFTISRDNAKNPVYLQMNSLKPEDTAVYYCNAVPGVSYWGQGLDYWGQGTQVTVSS,low polyreactivity
8,QVQLVESGGGLVQAGGSLRLSCAASGSTFRSYAMGWYRQAPGKERELVAAISRGGSTYYADSVKGRFTISRDNAKNTVYLQMNSLKPEDTAVYYCAARPPRGSWQYDYWGQGTQVTVSS,high polyreactivity
9,QVQLVESGGGLVQAGGSLRLSCAASGSTFRSYAMGWYRQAPGKERELVAAISSTGGSTYYADSVKCRFTISRDTAKNTVYFQMNSLKPVDTAVYYCAADFLYYEYDYWGQGTQVTVSS,low polyreactivity
10,QVQLVESGGGLVQAGGSLRLSCAASGSTFRSYAMGWYRQAPWKERELVAAISSSGGSTYYADSVKGRFTISRDNANNTVYLQMNSLKPEDTAVYICAADFLYYEYDYWGQGTQVTVSS,low polyreactivity
11,QVQLVESGGGLVQAGGSLRLSCAASGSTFRSYTMGWYRQAPGKERELVAAISGRGGSTYYADSVKGRFTISRDNAKNTVYLQMNSLKPEDTAVYYCAAPYWKRVAWGFDYWGQGTQVTVSS,high polyreactivity
12,QVQLVESGGGLVQAGGSLRLSCAASGSTFRSYTRGWYRQAPGKERELVAAIRKSGVRTYYADSVKGRFTISRDNAKNTVYLQMNSLKPEDTAVYYCNRPKWYDGDYWGQGTEVTVSS,high polyreactivity
13,QVQLVESGGGLVQAGGSLRLSCAASGSTFRSYVMGWYRQAPGKERELVARITFNGGGTSYADSVKGRFTISRDTAKNTVYLQMNSLKPEDTAVYYCAARGYGWPKLFNYWGQGTQVTVSS,high polyreactivity
14,QVQLVESGGGLVQAGGSLRLSCAASGSTFRTNVMGWYRQAPGKEREVVAAITKRGSITYYADSVKGRFTISRDNAKNTVYFQMNTLKPEDTAVYYCAARKVAVRGYAYWGQGTQVTVSS,high polyreactivity
15,QVQLVESGGGLVQAGGSLRLSCAASGSTFRVNTMGWYRQAPGKERELVAAISWSTGTSTYADSVKGRFTISRDNAKNTVYLQMNSLKPEDTAVYYCAAGQPAWGVEYDSWGQGTQVTVSS,low polyreactivity
16,QVQLVESGGGLVQAGGSLRLSCAASGSTFRVYAMGWYRQAPGKERELVAGISWRGGSTSYADSVKGRFTISRDNAKNTVYLQMNSLKPEDTAVYYCAVQRSYVGPRQYNYWGQGTQVTVSS,high polyreactivity
